Substitutions are numbered along the chain they refer to. Blank lines part the entries; values can stand above or below the binder they belong to.
Assays:
[1] = target: T1, human ROR1 (hROR1) on cells (human, UniProt Q01973 30-937); assay: FACS, HEK293T-hROR1 cells
T1 construct: whole, on cells; the cell line is named under assay; also called HEK293T-hROR1; 293T-hROR1

[2] = target: T2, cynomolgus ROR1 (cynoROR1) on CHO-K1 cells (cynomolgus, UniProt A0A2K5WTX7 30-937); assay: FACS, CHO-K1-cynoROR1 cells
T2 construct: whole, on cells; also called CHO-K1-cynoROR1; CHO-K1-cyROR1
Experimental: (§1) The binding properties were characterized by FACS. The recombinant antibodies obtained above were serially diluted to 9 different concentrations and incubated for 1 h, and then determined for the binding ability with HEK293T-hROR1, CHO-K1-cynoROR1 and A549 cell lines (endogenously expressing ROR1), respectively. The secondary antibody was then incubated for 1 h. The results are shown in FIG. 4-6 and Table 7-2 below.

hROR2ECD-his [3] = target: T3, hROR2ECD-his (human, UniProt Q01974 34-403); assay: ELISA, plate coated with hROR2 ECD-his
T3 construct: extracellular domain; bought, Acrobiosystems R02-H52E5; also called huROR2-his
T3 sequence (Q01974 34-403): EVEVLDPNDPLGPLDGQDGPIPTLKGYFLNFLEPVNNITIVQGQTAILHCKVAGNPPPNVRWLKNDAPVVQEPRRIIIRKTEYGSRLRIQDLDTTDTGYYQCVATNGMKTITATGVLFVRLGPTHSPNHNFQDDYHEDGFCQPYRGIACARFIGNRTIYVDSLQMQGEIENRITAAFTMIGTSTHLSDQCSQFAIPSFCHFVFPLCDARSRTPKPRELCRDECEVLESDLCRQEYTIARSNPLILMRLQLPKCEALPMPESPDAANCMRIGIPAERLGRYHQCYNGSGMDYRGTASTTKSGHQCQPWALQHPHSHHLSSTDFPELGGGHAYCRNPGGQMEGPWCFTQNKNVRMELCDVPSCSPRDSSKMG
Experimental: (§2) Screening by ELISA assay: 96-well plates (Corning 9018) were coated with 1 μg/mL hROR1 ECD-his/hROR2 ECD-his/mROR1 ECD-his proteins prepared with PBS in Example 1a above and incubated at 4° C. overnight. The liquid was then discarded, and the plates were washed 3 times with PBST, blocked with 5% milk for 2 h at room temperature, and washed 3 times with PBST. The taken supernatant was added at 100 μL/well, and the plates were incubated at room temperature for 1 h, followed by washing 3 times with PBST. 100 μL/well of secondary antibody (Sigma, Cat#: A8592) was added, the plates were incubated at room temperature for 1 h, and then washed. TMB was then added to the plates at 100 μL/well and incubated for 15 min at room temperature. Thereafter, the reaction was terminated and data were read.
(§3) a. Results of ELISA assay (the ELISA assay was performed according to the same procedures as in Example 2c, except that the added samples were recombinant antibodies and the secondary antibody was a-Fc (Genscript, Cat#: A01854))

Human ROR1-ECD-his = target: T4, Human ROR1-ECD-his (human, UniProt Q01973 30-406); assay: ELISA, plate coated with hROR1 ECD-his
T4 construct: extracellular domain; bought, Acrobiosystems RO1-H522y; also called hROR1-ECD-his; hROR1 ECD-his
T4 sequence (Q01973 30-406): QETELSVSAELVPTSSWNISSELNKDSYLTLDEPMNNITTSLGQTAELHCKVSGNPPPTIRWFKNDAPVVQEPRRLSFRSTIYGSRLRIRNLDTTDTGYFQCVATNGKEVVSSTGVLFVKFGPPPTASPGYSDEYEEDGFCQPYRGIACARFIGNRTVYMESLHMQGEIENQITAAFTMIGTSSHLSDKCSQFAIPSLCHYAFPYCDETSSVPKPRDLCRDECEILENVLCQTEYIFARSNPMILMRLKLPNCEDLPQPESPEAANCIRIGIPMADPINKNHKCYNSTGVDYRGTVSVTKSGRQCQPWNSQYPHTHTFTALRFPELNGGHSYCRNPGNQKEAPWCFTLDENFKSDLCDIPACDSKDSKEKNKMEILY
Experimental: as §2, §3

[4] = target: T5, ROR1 (antigen of the KD determination and of the Octet dissociation measurement) (UniProt Q01973 30-403, limits assumed); assay: method not stated (conventional procedures)
T5 sequence (Q01973 30-403 limits assumed): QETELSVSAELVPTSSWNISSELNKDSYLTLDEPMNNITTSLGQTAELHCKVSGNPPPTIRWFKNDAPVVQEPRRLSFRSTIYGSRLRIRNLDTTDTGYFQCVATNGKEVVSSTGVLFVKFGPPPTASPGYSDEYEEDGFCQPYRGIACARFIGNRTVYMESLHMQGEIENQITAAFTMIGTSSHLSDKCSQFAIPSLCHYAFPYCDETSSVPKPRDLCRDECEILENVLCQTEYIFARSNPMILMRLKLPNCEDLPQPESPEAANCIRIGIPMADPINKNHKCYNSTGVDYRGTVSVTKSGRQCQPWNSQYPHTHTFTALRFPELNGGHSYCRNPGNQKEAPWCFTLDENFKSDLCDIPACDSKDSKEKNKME

[5] = target: T5, ROR1 (antigen of the KD determination …); assay: Octet, antigen form not stated
[6] = target: T1, human ROR1 (hROR1) on cells; assay: FACS, A549 cells
Experimental: as §1

[7] = target: T1, human ROR1 (hROR1) on cells; assay: FACS, HEK293T-hROR1 cells; cytometer saturated
Experimental: as §1

hROR2ECD-his [8] = target: T3, hROR2ECD-his; assay: ELISA, plate coated with hROR2 ECD-his; remark: listed apart in the source
Experimental: as §2, §3
The corresponding values in the table are the measured median fluorescence intensity (MFI).

[9] = target: T1, human ROR1 (hROR1) on cells; assay: FACS, HEK293T-hROR1 cells; remark: listed apart in the source
Experimental: as §1

[10] = target: T1, human ROR1 (hROR1) on cells; assay: FACS, Panc-1 cells
[11] = target: T1, human ROR1 (hROR1) on cells; assay: flow cytometry (FACS) on HEK293T-hROR1 cells, antibody 0.01-100 nM, median fluorescence intensity
Experimental: as §1

[12] = target: T1, human ROR1 (hROR1) on cells; assay: flow cytometry (FACS) on A549 cells (endogenous ROR1), antibody 0.01-100 nM, median fluorescence intensity
Experimental: as §1

[13] = target: T2, cynomolgus ROR1 (cynoROR1) on CHO-K1 …; assay: flow cytometry (FACS) on CHO-K1-cynoROR1 cells, antibody 0.01-100 nM, median fluorescence intensity
Experimental: as §1

[14] = target: T1, human ROR1 (hROR1) on cells; assay: cell-based or functional assay

T1 sequence (Q01973 30-937): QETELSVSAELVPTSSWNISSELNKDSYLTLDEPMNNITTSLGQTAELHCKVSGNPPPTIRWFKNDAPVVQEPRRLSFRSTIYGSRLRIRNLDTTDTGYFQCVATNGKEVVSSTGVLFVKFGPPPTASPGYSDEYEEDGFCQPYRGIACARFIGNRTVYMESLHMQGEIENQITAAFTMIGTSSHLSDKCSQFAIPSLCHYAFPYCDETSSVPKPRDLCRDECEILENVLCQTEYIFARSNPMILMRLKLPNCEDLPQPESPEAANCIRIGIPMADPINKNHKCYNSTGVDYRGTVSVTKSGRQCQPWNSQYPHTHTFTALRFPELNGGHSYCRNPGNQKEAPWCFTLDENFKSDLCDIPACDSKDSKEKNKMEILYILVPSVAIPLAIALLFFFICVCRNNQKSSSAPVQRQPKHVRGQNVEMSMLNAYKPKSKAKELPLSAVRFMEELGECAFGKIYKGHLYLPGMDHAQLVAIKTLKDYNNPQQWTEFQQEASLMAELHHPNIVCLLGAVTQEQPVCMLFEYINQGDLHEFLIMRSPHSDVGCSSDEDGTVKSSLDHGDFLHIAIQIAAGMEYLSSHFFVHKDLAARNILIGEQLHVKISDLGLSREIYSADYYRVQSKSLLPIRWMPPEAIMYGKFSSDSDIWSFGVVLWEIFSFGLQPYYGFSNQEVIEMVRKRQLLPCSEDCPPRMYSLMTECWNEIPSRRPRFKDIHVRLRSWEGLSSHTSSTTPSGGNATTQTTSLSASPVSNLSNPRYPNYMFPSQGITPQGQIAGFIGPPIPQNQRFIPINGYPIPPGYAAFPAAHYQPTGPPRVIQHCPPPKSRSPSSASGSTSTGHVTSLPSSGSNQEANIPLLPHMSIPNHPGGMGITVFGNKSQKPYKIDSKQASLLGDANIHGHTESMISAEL

B1: PR001364 (antibody, human IgG1, kappa, V domains shown)
VH: EVQLLESGGGVVQPGRSLRLSCAASGFTFSSFGMHWVRQAPGKGLEWVAVIWYDGSDKDYADSVKGRFTISRDTSKNTLYLQMNSLRAEDTAVYYCAREQARSFDLWGRGTLVTVSS
VL: DIVMTQSPSTLSASVGDRVTITCRASQTINNWLAWYQQKPGKAPKLLIYKASSLESGVPSRFSGSGSGTEFTLTISSLQPDDFATYYCQQYNSYSPMYTFGQGTKVEIKR
notes: fully human IgG1, kappa; also called anti-ROR1 1015M3-D8 hIgG1; PR001364(WT)
MFI [1]: 43100 MFI
MAX(MFI) [2]: 18200 MFI
ELISA signal (called MFI) (hROR2ECD-his [3]): 0.024
ELISA signal (called MFI) (Human ROR1-ECD-his): 2.38
Kd [4]: 1.2 nM
koff [4]: 0.000376 s⁻¹
kon [4]: 314000 M⁻¹ s⁻¹
Response [5]: 0.601
koff [5]: 9.38e-05 s⁻¹
MAX(MFI) [6]: 3960 MFI
MAX(MFI) [7]: 262000 MFI
binding result (hROR2ECD-his [8]): no binding
fold lower EC50 than reference PR000374 [9]: 10 fold
MFI [10]: 4960 MFI

B3: PR001355 (antibody, human IgG1, kappa, V domains shown)
VH: B1 VH with E1Q, L5V, E6Q, V11L, R16G, F32Y, D57N, A97V
VL: B1 VL with V3Q, T10S, I29M, F83S, V106L
notes: fully human IgG1, kappa
MAX(MFI) [2]: 30000 MFI
ELISA signal (called MFI) (hROR2ECD-his [3]): 0.0285
ELISA signal (called MFI) (Human ROR1-ECD-his): 2.54
Kd [4]: 0.839 nM
koff [4]: 0.000291 s⁻¹
kon [4]: 347000 M⁻¹ s⁻¹
MAX(MFI) [6]: 4240 MFI
ADCC Cytotoxicity (%), Donor 1, 1 nM [14]: 25.7%
ADCC Cytotoxicity (%), Donor 1, 10 nM [14]: 29%
ADCC Cytotoxicity (%), Donor 2, 1 nM [14]: 14.1%
ADCC Cytotoxicity (%), Donor 2, 10 nM [14]: 14.2%
MAX(MFI) [7]: 262000 MFI
binding result (hROR2ECD-his [8]): no binding
fold lower EC50 than reference PR000374 [9]: 10 fold

B6: PR001369 (antibody, human IgG1, kappa, V domains shown)
VH: B1 VH with E1Q, L5V, S31N, F32Y, M34I, V50I, I51M, D57N, K58T, Y80F
VL: B1 VL
notes: fully human IgG1, kappa; also called anti-ROR1 1015M3-H10 hIgG1; PR001369(WT)
MFI [1]: 43800 MFI
MAX(MFI) [2]: 22200 MFI
ELISA signal (called MFI) (hROR2ECD-his [3]): 0.031
ELISA signal (called MFI) (Human ROR1-ECD-his): 2.48
Kd [4]: 1.69 nM
koff [4]: 0.000519 s⁻¹
kon [4]: 307000 M⁻¹ s⁻¹
Response [5]: 0.288
koff [5]: 0.00498 s⁻¹
MAX(MFI) [6]: 3890 MFI
MAX(MFI) [7]: 262000 MFI
binding result (hROR2ECD-his [8]): no binding
fold lower EC50 than reference PR000374 [9]: 10 fold
MFI [10]: 6230 MFI

Next, values leading:

ELISA signal (called MFI) (hROR2ECD-his [3]): 0.042
ELISA signal (called MFI) (Human ROR1-ECD-his): 2.42
Kd [4]: 1.45 nM
koff [4]: 0.000423 s⁻¹
kon [4]: 292000 M⁻¹ s⁻¹
EC50 (read off the curve) [11]: ~3 nM
EC50 (read off the curve) [12]: ~0.4 nM
binding result (hROR2ECD-his [8]): no binding
fold lower EC50 than reference PR000374 [9]: 10 fold
EC50 (read off the curve) [13]: ~1 nM
B2: PR001418 (antibody, human IgG1, kappa, V domains shown)
VH: B1 VH with E1Q, L5V, F32Y
VL: B1 VL with V106L
notes: fully human IgG1, kappa

ELISA signal (called MFI) (hROR2ECD-his [3]): 0.027
ELISA signal (called MFI) (Human ROR1-ECD-his): 2.38
Kd [4]: 14.9 nM
koff [4]: 0.00646 s⁻¹
kon [4]: 433000 M⁻¹ s⁻¹
EC50 (read off the curve) [11]: ~3 nM
EC50 (read off the curve) [12]: ~0.9 nM
binding result (hROR2ECD-his [8]): no binding
fold lower EC50 than reference PR000374 [9]: 10 fold
EC50 (read off the curve) [13]: ~2 nM
B4: PR001417 (antibody, V domains shown)
VH: B1 VH with E1Q, L5V, T28S, F32Y, G33A, K43R, S56G, K58E, A61I, T74D
VL: B1 VL with I2V, T28S, N31S
notes: fully human IgG1, kappa

ELISA signal (called MFI) (hROR2ECD-his [3]): 0.03
ELISA signal (called MFI) (Human ROR1-ECD-his): 2.61
Kd [4]: 1.53 nM
koff [4]: 0.000512 s⁻¹
kon [4]: 336000 M⁻¹ s⁻¹
EC50 (read off the curve) [11]: ~3 nM
EC50 (read off the curve) [12]: ~0.4 nM
binding result (hROR2ECD-his [8]): no binding
fold lower EC50 than reference PR000374 [9]: 10 fold
EC50 (read off the curve) [13]: ~0.9 nM
B5: PR001415 (antibody, human IgG1, kappa, V domains shown)
VH: B1 VH with L5V, S31N, F32S, V50I, I51M, D57N
VL: B1 VL
notes: fully human IgG1, kappa
